From doi:10.1101/2022.04.20.488894

Biological target: α-Synuclein (UniProt P37840)
Assay: cross-linking

P intra (intra-protein character) of the DSBU cross-link Lys-21 to Lys-32: 77%
Substance: α-Synuclein (from UniProt P37840 1-140) (natural protein)
